Test [1] relates to neuropathic mechanical hypersensitivity in SNL rats. Type of test: in vivo, rat. Conditions: intrathecal 10 μl; h-T100 10-100 μM, HC-030031 10-200 μM, scrambled 100 μM. The text has this: An modified L5 SNL model was produced as described in previously (He et al., 2014; Shechter et al., 2013). Male Sprague-Dawley rats (200-350 g, Harlan, Indianapolis, Ind.) were anesthetized with 2% isoflurane. The left L5 spinal nerve was ligated with a 6-0 silk suture and cut distally. The muscle layer was closed with 4-0 chromic gut suture and the skin closed with metal clips. For intrathecal catheter implantation, a small slit was cut in the atlanto-occipital membrane of rats, into which a saline-filled piece of PE-10 tubing (6-7 cm) was inserted (He et al., 2014). […] Hypersensitivity to punctuate mechanical stimulation was determined with the up-down method by using a series of von Frey filaments (0.38-15.1 g) applied for 4-6 seconds to the test area on the plantar surface of the hindpaw (Chaplan et al., 1994; He et al., 2014). The PWT was determined according to the formula provided by Dixon (Dixon, 1980). […] HC-030031 was purchased from Tocris Bioscience (Bristol, UK). Both drugs were dissolved in 10% dimethylsulfoxide (DMSO), 5% Tween 80 and 85% sterile saline solution. The final working solution which was injected by intrathecal route contained <1% DMSO. The number of animals used in each study was based on experience with similar studies and power analysis calculations. Animals were randomized to the different treatment groups and blinded the experimenter to drug treatment to reduce selection and observation bias. After the experiments were completed, no data point was excluded. STATISTICA 6.0 software (StatSoft, Inc., Tulsa, Okla.) was used to conduct all statistical analyses. The Tukey honestly significant difference (HSD) post-hoc test was used to compare specific data points. Bonferroni correction was applied for multiple comparisons. Two-tailed tests were performed, and data are expressed as mean±SEM; P<0.05 was considered significant in all tests.
The sequence from the last 28 amino acids of the C-terminus of the Tmem100-3Q mutant protein was synthesized and myristoylated at its N-terminus (myr-[…]-COOH) (SEQ ID NO: 8) by Twentyfirst Century Biochemicals. […] For the calcium imaging assay, the peptides were added to the calcium imaging buffer with a final concentration of 200 nM and incubated for at least […] at room temperature. For the mice behavioral assays, the peptides (5 μL, 2 mM) were injected subcutaneously in the hindpaw at least 30 minutes before testing. For the rat behavior assays, human T100-3Q (h-T100), a palmitoylated cell permeable peptide mutated based on the C terminus of human sequence in Tmem100, was applied. The sequence is Palmitoyl-[…]-COOH (SEQ ID NO: 7).

In test [2] the target is TRPA1 (expressed in heterologous cells: CHO, HEK293T). The experiment in a line: cell-based or functional assay.
TRPA1 (expressed in heterologous cells: CHO, HEK293T), sequence (O75762 whole entry): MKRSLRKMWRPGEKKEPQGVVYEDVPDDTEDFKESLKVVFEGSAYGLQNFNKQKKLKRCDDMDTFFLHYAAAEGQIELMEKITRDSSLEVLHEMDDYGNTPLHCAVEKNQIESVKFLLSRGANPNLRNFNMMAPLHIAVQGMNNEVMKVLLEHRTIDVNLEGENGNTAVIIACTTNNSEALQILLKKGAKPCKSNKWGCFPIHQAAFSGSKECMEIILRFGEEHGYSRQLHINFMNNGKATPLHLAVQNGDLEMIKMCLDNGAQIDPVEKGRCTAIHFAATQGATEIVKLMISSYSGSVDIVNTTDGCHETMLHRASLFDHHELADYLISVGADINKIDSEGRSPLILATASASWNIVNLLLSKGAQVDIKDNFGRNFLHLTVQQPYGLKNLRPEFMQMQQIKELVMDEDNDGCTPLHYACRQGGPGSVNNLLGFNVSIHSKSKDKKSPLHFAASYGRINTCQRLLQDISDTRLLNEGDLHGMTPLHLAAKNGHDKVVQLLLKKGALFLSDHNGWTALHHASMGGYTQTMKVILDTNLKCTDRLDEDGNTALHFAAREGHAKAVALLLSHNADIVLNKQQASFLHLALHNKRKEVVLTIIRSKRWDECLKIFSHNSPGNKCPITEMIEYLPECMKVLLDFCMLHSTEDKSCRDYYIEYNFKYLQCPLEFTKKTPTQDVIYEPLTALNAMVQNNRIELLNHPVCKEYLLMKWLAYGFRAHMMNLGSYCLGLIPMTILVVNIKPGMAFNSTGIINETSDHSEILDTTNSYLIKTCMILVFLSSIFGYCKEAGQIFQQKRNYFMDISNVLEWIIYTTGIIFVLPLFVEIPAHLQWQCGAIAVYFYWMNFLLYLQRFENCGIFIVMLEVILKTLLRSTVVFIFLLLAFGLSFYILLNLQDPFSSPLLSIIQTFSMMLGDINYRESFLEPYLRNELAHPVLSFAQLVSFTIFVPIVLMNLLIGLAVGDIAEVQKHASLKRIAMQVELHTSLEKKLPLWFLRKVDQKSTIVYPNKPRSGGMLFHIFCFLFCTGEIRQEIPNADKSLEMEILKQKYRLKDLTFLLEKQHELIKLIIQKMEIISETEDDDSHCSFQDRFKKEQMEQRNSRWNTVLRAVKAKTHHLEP
Test [3] concerns the target TRPV1 (expressed in heterologous cells: CHO, HEK293T). The experiment in a line: cell-based or functional assay.
In another test the test system is T1, TRPA1.
T1 construct: MO (10 μM)-evoked Ca2+ influx; other: TRPA1+TRPV1+Tmem100-3Q (1:1:4) CHO cells; MO (10 μM)-gated whole-cell current density; other: Vh=-60 mV; TRPA1+TRPV1+Tmem100-3Q (1:1:4) CHO cells; MO (10 μM)-induced single-channel activity (NPo); co-expressed with TRPA1+TRPV1 (1:1:4) in CHO cells
Briefly: MO-gated whole-cell voltage clamp in CHO cells expressing TRPA1+TRPV1. It is filed as cell-based. As to conditions: Vh=-60 mV; TRPA1+TRPV1+Tmem100-3Q (1:1:4) CHO cells. The procedure:
Recordings were made in cell-attached single-channel or whole-cell voltage clamp configurations at 22-24° C. from the somata of small-to-medium mouse DRG neurons (15-35 pF) or CHO cells. For whole-cell configuration, holding potential (Vh) is −60 mV. Data were acquired and analyzed using an Axopatch 200B amplifier and pCLAMP9.0 software (Molecular Devices, Sunnyvale, Calif.). Borosilicate pipettes (Sutter, Novato, Calif.) were pulled and polished to resistances of 3-5 MΩ (in whole-cell and single-channel pipette solutions). Access resistance (Rs) was compensated (40-80%) when appropriate up to the value 7-10 MΩ for whole-cell configuration. Whole-cell recording data were filtered at 0.5 kHz and sampled at 2 kHz. Single-channels currents were filtered with an 8-pole, low pass Bessel filter at 0.1 kHz and sampled at 0.5 kHz, since dwelling time (τ) of the TRPA1 and TRPV1 single-currents were >0.5 sec. Whole-cell recorded data were rejected when Rs changed >20% during recording, leak currents were >100 pA, or input resistance was <200 MΩ.
Standard external solution (SES) for whole-cell patch recording contained (in mM): 140 NaCl, 5 KCl, 2 CaCl2, 1 MgCl2, 10 D-glucose and 10 HEPES, pH 7.4. Vehicle, which is 0.01% DMSO, was added to external solutions. […] The baseline activities of the cells were recorded for 1-2 min prior drug applications. […]

* marks the point of attachment. Myristoyl = CCCCCCCCCCCCCC(=O)*

Regarding “myr-QRVLEQVLQNWSRRANVKQAQKFQVKCT-COOH (Myristoyl-QRVLEQVLQNWSRRANVKQAQKFQVKCT-OH; SMILES CCCCCCCCCCCCCC(=O)N[C@@H](CCC(N)=O)C(=O)N[C@@H](CCCNC(=N)N)C(=O)N[C@H](C(=O)N[C@@H](CC(C)C)C(=O)N[C@@H](CCC(=O)O)C(=O)N[C@@H](CCC(N)=O)C(=O)N[C@H](C(=O)N[C@@H](CC(C)C)C(=O)N[C@@H](CCC(N)=O)C(=O)N[C@@H](CC(N)=O)C(=O)N[C@@H](Cc1c[nH]c2ccccc12)C(=O)N[C@@H](CO)C(=O)N[C@@H](CCCNC(=N)N)C(=O)N[C@@H](CCCNC(=N)N)C(=O)N[C@@H](C)C(=O)N[C@@H](CC(N)=O)C(=O)N[C@H](C(=O)N[C@@H](CCCCN)C(=O)N[C@@H](CCC(N)=O)C(=O)N[C@@H](C)C(=O)N[C@@H](CCC(N)=O)C(=O)N[C@@H](CCCCN)C(=O)N[C@@H](Cc1ccccc1)C(=O)N[C@@H](CCC(N)=O)C(=O)N[C@H](C(=O)N[C@@H](CCCCN)C(=O)N[C@@H](CS)C(=O)N[C@H](C(=O)O)[C@@H](C)O)C(C)C)C(C)C)C(C)C)C(C)C) [scrambled]”, the “ipsilateral paw withdrawal threshold (PWT) vs pre-drug” value in test [1] was “no effect”.

B1: Tmem100-3Q mutant (full-length, mouse) (protein)
chain: MTEESTKENLGAPKSPTPVTMEKNPKREVVVTTGPLVSEVQLMAATGGAELSCYRCIIPFAVVVFITGIVVTAVAYSFNSHGSIISIFGLVLLSSGLFLLASSALCWKVRQRNKKVQQQESQTALVVNQRCLFA
B1 came in with an MO (10 µM)-induced single-channel activity (NPo), CHO cells in test [2] of 1.05. This molecule also gave a CAP (100 nM)-induced single-channel activity (NPo), CHO cells in test [3] of 0.73. Besides, the “MO (10 μM)-gated whole-cell current density” value with TRPA1 turned out to be 39.16±12.5 pA/pF.
